Measured values as given in patent US20210380722A1, “COMPOSITIONS AND METHODS FOR THE TREATMENT OF MAJOR DEPRESSIVE DISORDER” (Snake River Bioscience, Inc., priority 2019, published 2021).

Assays:
[1] = Asah2, R&D; cited from earlier work
[2] = system: healthy wildtype mice injected with blood plasma from stressed mice; test: blood plasma from stressed mice treated in vitro, injected i.v. into healthy wildtype mice; assay type: in vivo; conditions: plasma from stressed mice incubated in vitro with agent, 125 μL i.v. into non-stressed mice, 24 h later; FIGS. 3a, 3b
Procedure: Corticosterone (Sigma, St. Louis, Mo.) was administered to mice via the drinking water at 120 mg/L for 7 days. In the chronic unpredictable stress model (CUS), the mice were challenged with unpredictable environmental stress for 8 days, i.e., a reversal of the light/dark cycle, 3 h of 45° tilting of the cage twice each week, shaking at 125 rpm, food deprivation for 14 h, predator sounds (15 min) or wet cages (1 h) with two forms of stress per day in a randomized (unpredictable) order. Blood was collected from the heart into heparin-coated needles and tubes immediately after sacrifice by cervical dislocation. Blood plasma was centrifuged at 3500 rpm for 5 min at 4° C. in an Eppendorf centrifuge. […]
(§1) Behavioral testing was performed between 3:00 p.m. and 6:00 p.m. under diffuse indirect room light. […] The time was recorded during which the mice explored a new environment before they began eating. […] The time that the mouse spent in each of the separate compartments was recorded. […] In the coat state test, the appearance of the coat (groomed vs unkempt coat) was scored on the head, neck, back, and ventrum with either a zero for normal status or a 1 for unkempt status. […] After 24 h the mice were again placed in a water-filled cylinder for 6 min, and the time of mobility or immobility during the last 4 min of the second trial was recorded. […]

[3] = system: healthy mice injected with exosomes from patients with MDD; test: exosomes from blood plasma of MDD patients treated in vitro, injected into healthy mice; assay type: in vivo; conditions: human exosomes preincubated with agent, 24 h after injection, FIGS. 5a, 5b
Procedure: Depressive patients (7 women, 10 men) aged >60 years (mean age=71.1 years, SD=4.7) were recruited at the Psychiatric University Hospital, Basel, Switzerland. […] For comparison, 9 healthy individuals without history of depression (mean age=70.9 years, SD=5.3) were included in the study. The study was approved by the “Ethikkommission der Nordwest—und Zentralschweiz” (EKNZ; No. 2015-148) and all participants provided written informed consent. […]
as §1
Exosomes were isolated from 150 μL blood plasma from patients with major depressive disorder (MDD), and from healthy control subjects. […] Behavior (FIG. 5a) and neurogenesis (FIG. 5b) were determined to measure the occurrence of MDD in mice after injection of human exosomes from depressed patients. […]

[4] = system: untreated wildtype mice injected with exosomes purified from stressed mice; test: exosomes from stressed mice incubated ex vivo, injected i.v. into untreated wildtype mice; assay type: in vivo; conditions: exosomes from stressed mice incubated 60 min ex vivo with agent, within 24 h, FIGS. 3c, 3d
Procedure: To achieve in vitro neutralization of consumption of ceramide, 125 μL blood plasma or exosomes (purified from 150 μL blood plasma as described below) were incubated with 0.5 μg purified IgM anti-ceramide antibodies, 0.5 μg control IgM or 1 μg recombinant neutral ceramidase.
To isolate exosomes from blood plasma, samples were centrifuged at 16,500×g for 20 min. The supernatant was then passed through a 0.22-μm filter and exosomes were harvested by centrifugation twice at 100,000×g for 70 min. The final pellet was resuspended in phosphate-buffered saline (PBS). Exosomes were pelleted by centrifugation at 100,000×g for 70 min, the supernatant was discarded, and the exosomes were resuspended and injected i.v. into healthy mice. […]
as §1

[5] = system: mice stressed with glucocorticosterone or chronic unpredictable environmental stress (CUS); test: i.v. treatment of stressed mice with anti-ceramide antibodies or neutral ceramidase; behavior and neurogenesis; assay type: in vivo; conditions: mice stressed 6 days with glucocorticosterone or CUS

B1: recombinant neutral ceramidase: recombinant neutral ceramidase (Asah2, R&D, 3,000 pmol/min/μg), consumes plasma ceramide (protein, UniProt Q9JHE3 1-756, looked up)
Neutral ceramidase: MAKRTFSTLEAFLIFLLVIMTVITVALLTLLFVTSGTIENHKDSGNHWFSTTLGSTTTQPPPITQTPNFPSFRNFSGYYIGVGRADCTGQVSDINLMGYGKNGQNARGLLTRLFSRAFILADPDGSNRMAFVSVELCMISQRLRLEVLKRLESKYGSLYRRDNVILSAIHTHSGPAGFFQYTLYILASEGFSNRTFQYIVSGIMKSIDIAHTNLKPGKIFINKGNVANVQINRSPSSYLLNPQSERARYSSNTDKEMLVLKLVDLNGEDLGLISWFAIHPVSMNNSNHFVNSDNMGYAAYLFEQEKNKGYLPGQGPFVAGFASSNLGDVSPNILGPHCVNTGESCDNDKSTCPNGGPSMCMASGPGQDMFESTHIIGRIIYQKAKELYASASQEVTGPVLAAHQWVNMTDVSVQLNATHTVKTCKPALGYSFAAGTIDGVSGLNITQGTTEGDPFWDTLRDQLLGKPSEEIVECQKPKPILLHSGELTIPHPWQPDIVDVQIVTVGSLAIAAIPGELTTMSGRRFREAIKKEFALYGMKDMTVVIAGLSNVYTHYITTYEEYQAQRYEAASTIYGPHTLSAYIQLFRDLAKAIATDTVANMSSGPEPPFFKNLIASLIPNIADRAPIGKHFGDVLQPAKPEYRVGEVVEVIFVGANPKNSAENQTHQTFLTVEKYEDSVADWQIMYNDASWETRFYWHKGILGLSNATIYWHIPDTAYPGIYRIRYFGHNRKQELLKPAVILAFEGISSPFEVVTT
For B1, the “activity of recombinant neutral ceramidase” value [1] is given as 3,000 pmol/min/μg, the “development of MDD (behavioral changes and neurogenesis in the hippocampus)” value [2] is given as “prevented the development of MDD” and the “depressed behavior and reduced neurogenesis induced by exosomes from depressed patients” value [3] is given as “prevented their effects on mice”. For the same molecule, the “development of MDD (behavior parameters and neuronal proliferation)” value [4] was “prevented development of MDD”, the “neurogenesis in the hippocampus (BrdU-positive cells)” value ([5]; 24 h after first i.v. injection, FIG. 2b) was “normalized neurogenesis” and the “behavioral signs of major depression (light/dark box, latency to feed, time in center, splash test, forced swim test, coat test)” value ([5]; i.v. injection 24 h and 12 h before analysis, FIG. 2a) was “abrogated behavioral signs of major depression in stressed mice”.
